# According to patent publication US20250057951A1, “DISCERNIBLE CELL SURFACE PROTEIN VARIANTS OF CD117 FOR USE IN CELL THERAPY” (UNIVERSITÄT BASEL, priority 2021, published 2025):
# Numbering of substitutions follows the chain as printed. Numbers in names are those of the source.
# B1: S123P: variant of human CD117 with substitution S123P (protein)
# chain: QPSVSPGEPSPPSIHPGKSDLIVRVGDEIRLLCTDPGFVKWTFEILDETNENKQNEWITEKAEATNTGKYTCTNKHGLSNSIYVFVRDPAKLFLVDRPLYGKEDNDTLVRCPLTDPEVTNYSLKGCQGKPLPKDLRFIPDPKAGIMIKSVKRAYHRLCLHCSVDQEGKSVLSEKFILKVRPAFKAVPVVSVSKASYLLREGEEFTVTCTIKDVSSSVYSTWKRENSQTKLQEKYNSWHHGDFNYERQATLTISSARVNDSGVFMCYANNTFGSANVTTTLEVVDKG
# B2: D121R: variant of human CD117 with substitution D121R (protein)
# chain: B1 chain with D96R, P98S
# B3: D121Y: variant of human CD117 with substitution D121Y (protein)
# chain: B1 chain with D96Y, P98S
# B4: S123M: variant of human CD117 with substitution S123M (protein)
# chain: B1 chain with P98M
# B5: S123Q: variant of human CD117 with substitution S123Q (protein)
# chain: B1 chain with P98Q
# B6: D121T: variant of human CD117 with substitution D121T (protein)
# chain: B1 chain with D96T, P98S
# B7: E73L: variant of human CD117 with substitution E73L (protein)
# chain: B1 chain with E48L, P98S
# B8: E73R: variant of human CD117 with substitution E73R (protein)
# chain: B1 chain with E48R, P98S
# B9: S123E: variant of human CD117 with substitution S123E (protein)
# chain: B1 chain with P98E
# B10: D121H: variant of human CD117 with substitution D121H (protein)
# chain: B1 chain with D96H, P98S
# B11: K193G (receptor)
# extracellular domains 1, 2 and 3: QPSVSPGEPSPPSIHPGKSDLIVRVGDEIRLLCTDPGFVKWTFEILDETNENKQNEWITEKAEATNTGKYTCTNKHGLSNSIYVFVRDPAKLFLVDRSLYGKEDNDTLVRCPLTDPEVTNYSLKGCQGKPLPKDLRFIPDPKAGIMIKSVKRAYHRLCLHCSVDQEGGSVLSEKFILKVRPAFKAVPVVSVSKASYLLREGEEFTVTCTIKDVSSSVYSTWKRENSQTKLQEKYNSWHHGDFNYERQATLTISSARVNDSGVFMCYANNTFGSANVTTTLEVVD
# notes: not in the list MOLECULES; also called human CD117 D1-2-3 variant K193G
# B12: R122L (receptor)
# extracellular domains 1, 2 and 3: B11 extracellular domains 1, 2 and 3 with R97L, G168K
# notes: not in the list MOLECULES; also called human CD117 D1-2-3 variant R122L
# B13: K193T (receptor)
# extracellular domains 1, 2 and 3: B11 extracellular domains 1, 2 and 3 with G168T
# notes: not in the list MOLECULES; also called human CD117 D1-2-3 variant K193T
# B14: K193M (receptor)
# extracellular domains 1, 2 and 3: B11 extracellular domains 1, 2 and 3 with G168M
# notes: not in the list MOLECULES; also called human CD117 D1-2-3 variant K193M
# B15: V120I (receptor)
# extracellular domains 1, 2 and 3: B11 extracellular domains 1, 2 and 3 with V95I, G168K
# notes: not in the list MOLECULES; also called human CD117 D1-2-3 variant V120I
# B16: K193D (receptor)
# extracellular domains 1, 2 and 3: B11 extracellular domains 1, 2 and 3 with G168D
# notes: not in the list MOLECULES; also called human CD117 D1-2-3 variant K193D
# B17: D121V (receptor)
# extracellular domains 1, 2 and 3: B11 extracellular domains 1, 2 and 3 with D96V, G168K
# notes: not in the list MOLECULES; also called human CD117 D1-2-3 variant D121V
# B18: E73G (receptor)
# extracellular domains 1, 2 and 3: B11 extracellular domains 1, 2 and 3 with E48G, G168K
# notes: not in the list MOLECULES; also called human CD117 D1-2-3 variant E73G
# B19: R122E (receptor)
# extracellular domains 1, 2 and 3: B11 extracellular domains 1, 2 and 3 with R97E, G168K
# notes: not in the list MOLECULES; also called human CD117 D1-2-3 variant R122E
# B20: D121S (receptor)
# extracellular domains 1, 2 and 3: B11 extracellular domains 1, 2 and 3 with D96S, G168K
# notes: not in the list MOLECULES; also called human CD117 D1-2-3 variant D121S
# B21: K193E (receptor)
# extracellular domains 1, 2 and 3: B11 extracellular domains 1, 2 and 3 with G168E
# notes: not in the list MOLECULES; also called human CD117 D1-2-3 variant K193E
# B22: R122S (receptor)
# extracellular domains 1, 2 and 3: B11 extracellular domains 1, 2 and 3 with R97S, G168K
# notes: not in the list MOLECULES; also called human CD117 D1-2-3 variant R122S
# Legend:
# [1] = system: TF-1 cells; assay: SCF-dependent proliferation, SCF titration on TF-1 cells with CD117 variants (CellTiter-Glo); format: cell-based, human
# Procedure: In another experiment, SCF-dependent proliferation of variants E73K, E73Y, D121K, S123F and S123K was compared against wildtype CD117. TF-1 cells were seeded at a cell concentration of 150 000 cells/ml in sterile, white cell culture treated plates with transparent bottom in RPMI+GlutaMax+10% FCS. Cells were treated with a titration of SCF. After 3 days of incubation a CellTiter-Glo 2.0 assay (Promega) was performed, luminescence was read in a luminometer (Envision plate reader) and EC50's was determined. Two different experiments with triplicates in each experiment were performed.
# [2] = system: antibody Refmab #1; assay: Octet screen: binding of CD117 D1-2-3 variants to captured Refmab #1; settings: nm shift at end of association, top analyte concentration (500 nM)
# Sequence of antibody Refmab #1 (as listed by the source): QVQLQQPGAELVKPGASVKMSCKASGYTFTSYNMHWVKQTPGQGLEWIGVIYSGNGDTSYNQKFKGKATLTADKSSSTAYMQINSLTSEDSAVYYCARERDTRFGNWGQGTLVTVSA
# Sequence of antibody Refmab #1 (as listed by the source): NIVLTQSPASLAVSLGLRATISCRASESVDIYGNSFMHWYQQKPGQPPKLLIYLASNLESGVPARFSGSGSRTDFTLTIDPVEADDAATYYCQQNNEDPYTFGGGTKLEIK
# Procedure: A more sophisticated analysis of binding to the elected variants was performed with antibody Refmab #1. Binding of Refmab #1 to wt and variants (analyte) was measured in an Octet system RED96e or R8 at 25° C. with shaking at 1,000 rpm using 1× kinetic buffer (Sartorius, PN: 18-1105). First, the elected variants were screened for their ability to bind Refmab #1 using three different concentrations of analytes. Antibody Refmab #1 was captured by Anti-Human Fc capture biosensor (AHC) (Sartorius, PN: 18-5060) for 300 s at 0.5 to 1 μg/mL. As an analyte, human CD117 wt and variants, containing only domains 1, 2 and 3 (CD117 D1-2-3), was titrated at 500 nM, 50 nM and 5 nM. Association and dissociation of the analyte to Refmab #1 was monitored for 300 s and 900 s, respectively. Reference subtraction was performed against buffer only wells. AHC tips were regenerated using 10 mM Gly-HCl pH 1.7. Data were analyzed using the Octet Data Analysis software HT 12.0. Data were fitted (when possible) to a 1:1 binding model. Kinetic rates ka and […] globally fitted. Binding level of the elected variants were compared to wild type and are shown as percent in FIG. 7. For this qualitative analysis, the binding level of the top analyte concentration at end of the association step was used.
# [3] = target: antibody Refmab #1; assay: Octet titration, steady state KD of CD117 D1-2-3 variants to Refmab #1; format: binding; settings: for Kd: 7 concentrations 2000-5 nM, steady state, two individual experiments; for change of KD compared to wild type CD117: KD variant vs wild type; for binding of Refmab #1 at 2000 nM variant: nm shift higher than 0.1 nm counts as binding
# Procedure: To further characterize binding of Refmab #1 to CD117 D1-2-3 variants E73K, E73L, E73R, E73Y, D121H, D121K, S123K and S123F, the analytes were titrated at 7 different concentrations (from 2000 nM to 5 nM). Antibody Refmab #1 was captured by AHC biosensors for 300 s at 0.5 to 1 μg/mL. Association and dissociation to Refmab #1 was extended to 600 s and 1000 s, respectively. Steady state analysis was performed.
# [4] = target: T1, Biotinylated Avitag-hSCF (human, UniProt P21583 26-190, limits assumed, biotinylated Avitag); assay: BLI (Octet), steady state: biotinylated SCF on streptavidin biosensor, CD117 D1-2-3 variant as analyte; KD relative to WT
# T1 construct: Bought reagent; also called hSCF (Acros Biosystems SCF-H82E1)
# T1 sequence (P21583 26-190 limits assumed): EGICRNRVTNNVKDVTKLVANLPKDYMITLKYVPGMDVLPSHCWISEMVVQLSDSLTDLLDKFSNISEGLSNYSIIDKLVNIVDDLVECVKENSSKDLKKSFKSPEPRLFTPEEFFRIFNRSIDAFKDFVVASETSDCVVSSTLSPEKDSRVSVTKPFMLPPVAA
# Procedure: Domains 4 and 5 were used as a negative, non-binding control.
# Association was monitored for 300 s and dissociation for 600 s. […] Reference subtraction was performed against buffer only wells. Biosensors were not regenerated and a new set of SA biosensors was used for each analyte. Data were analyzed using the Octet Data Analysis software HT 12.0. Steady state data analysis was performed due to the fast on/off nature of the interaction.
# [5] = titration of SCF, 3 days, TF-1 cells with the CD117 variant
Molecule,binding to Refmab #1 compared to wild type [2],binding result [4],other results
S123F: variant of human CD117 with substitution S123F,particular strong decrease in binding,–,"EC50 Average ([1]; average of two experiments): 3.82 ± 0.19 ng/mL; EC50 Experiment #1 [1, 5]: 4.01 ng/mL; EC50 Experiment #2 [1, 5]: 3.63 ng/mL; Kd [3]: 1500 nM; change of KD compared to wild type CD117 [3]: around 1,500 fold"
"S1231: variant of human CD117, printed S1231, probably substitution S123I",strong decrease in binding,–,–
B1,particular strong decrease in binding,–,–
B2,strong decrease in binding,–,–
B3,particular strong decrease in binding,–,–
B4,strong decrease in binding,–,–
B5,strong decrease in binding,–,–
B6,particular strong decrease in binding,–,–
B7,–,–,Kd [3]: 485 nM; change of KD compared to wild type CD117 [3]: around 500 fold
B8,particular strong decrease in binding,–,Kd [3]: 958 nM; change of KD compared to wild type CD117 [3]: around 1000 fold
B9,particular strong decrease in binding,–,binding of Refmab #1 at 2000 nM variant [3]: do not show any binding
B10,particular strong decrease in binding,–,binding of Refmab #1 at 2000 nM variant [3]: No binding
B11,–,binds,–
B12,–,binds,–
B13,–,binds,–
B14,–,binds,–
B15,–,binds,–
B16,–,binds,–
B17,–,binds,–
B18,–,binds,–
B19,particular strong decrease in binding,binds,–
B20,–,binds,–
B21,–,binds,–
B22,particular strong decrease in binding,binds,–
